# From patent US20230023093A1 (University of Pennsylvania, published 2023)
# B1: HIV-1 Env Fab (VRC01 based Fab generated from pHIV-1 Env Fab) (Fab, V domains shown)
# VH: QVQLVQSGGQMKKPGESMRISCRASGYEFIDCTLNWIRLAPGKRPEWMGWLKPRGGAVNYARPLQGRVTMTRDVYSDTAFLELRSLTVDDTAVYFCTRGKNCDYNWDFEHWGRGTPVIVSS
# VL: QIVLTQSPGTLSLSPGETAIISCRTSQYGSLAWYQQRPGQAPRLVIYSGSTRAAGIPDRFSGSRWGPDYNLTISNLESGDFGVYYCQQYEFFGQGTKVQVDI
# B2: CHIKV-Env-Fab (Fab, V domains shown)
# VH: QVQLVQSGSELKKPGASVKVSCKASGYTLTRYAMTWVRQAPGQGLEWMGWINTYTGNPTYVQGFTGRFVFSLDTSVSTAFLHITSLKAEDTAVYFCAREGGARGFDYWGQGTLVTVSS
# VL: QSVLTQPPSVSGAPGQRVTISCTGSSSNIGASHDVHWYQQLPGTAPTLLIYVNSNRPSGVPDRFSGSKSGTSASLAITGLQAEDEADYYCQSYDSNLSGSAVFGGGTKLTVLG
# Columns and labels:
# [1] = molecular target: HIV-1 Env of Bal26 (clade B, Tier 1) on pseudotyped virus (HIV-1 clade B, Bal26); test: cell-based or functional assay
# [2] = molecular target: HIV-1 Env of SF162S (clade B, Tier 1) on pseudotyped virus (HIV-1 clade B, SF162S); test: cell-based or functional assay
# [3] = molecular target: HIV-1 Env of the primary isolate Q23Env17 (pOpt-Env-A) (HIV-1 clade A, Q23Env17); test: cell-based or functional assay
# [4] = molecular target: T1, HIV-1 Env of clade B strain SF162 on transfected 293T cells (HIV-1 clade B, SF162, UniProt P19550 32-847); test: binding of day 6 mouse sera to Env expressed in transfected 293T cells (FIG. 12)
# T1 construct: whole, on cells
# [5] = molecular target: recombinant HIV-1 Env (subtype B; MN) protein (HIV-1 subtype B, MN, UniProt P05877 32-513); test: binding ELISA, serial dilutions of day 14 mouse sera
Binder,"plateau percent neutralization (TZM-Bl luciferase assay, sera 1:50) [1]","plateau percent neutralization (TZM-Bl luciferase assay, sera 1:50) [2]","plateau percent neutralization (TZM-Bl luciferase assay, sera 1:50) [3]",binding result [4],binding result [5]
B1,~62%,~70%,~60%,binds,–
B2,–,–,–,–,no binding
